Experiment [1] addresses mouse TMEM106B (mouse) (UniProt Q80X71). Briefly: FACS Neuro2a.
The target is the same in experiment [2]. Briefly: FACS, HEK293 transfectants.

B1: anti-TMEM106B antibody TM-4 (antibody, V domains shown)
VH: EVQVQQSGPVLVKPGASVKMSCKASGYTFTDYYMNWVKQSHGKNLEWIGVINPYNGGTSYHQKFKGKATLTVDKSSSTAYMELNSLTSEDSAVYYCARAATVVAGFDYWGQGTTLTVSS
VL: QAVVTQESALTTSPGETVTLTCRSSTGAVTTSNYANWVQEKPDHLFTGLIGGTNNRAPGVPARFSGSLIGDKAALTITGAQTEDEAIYFCVLWYSNHLVFGGGTKLTVL
The molecule B1 returned an MFI with mouse TMEM106B (mouse) [1] of 325. Besides, the fold-change over parental HEK293 with mouse TMEM106B (mouse) [2] came out at 1.97 fold.

Source of the values: patent publication US20230303681A1.
